Measured values reported in patent US20070123452A1, “Method of selecting novel immunosuppressant” (Astellas Pharma Inc., priority 2002, published 2007).

Key:
[1] = test system: IL-2 transcription (human IL-2 promoter); assay: IL-2 reporter gene assay in Jurkat cells; type: cell-based
Description: To 1 μg of the plasmid pGL3 IL2 Pro43, which has a human IL-2 promoter sequence (the −674 to +54 region in the vicinity of the transcription initiation site) upstream of the firefly luciferase gene, and 6 μg of pRL-TK (Promega), the plasmids for the expression of wild-type HDAC4 or each of HDAC4 dominant negative variants (H802K, H803L, H863L) prepared in Example 3 was mixed in various ratios (1, 3 and 10 μg), and 1×10^7 Jurkat cells (ATCC, TIB-152) were transformed by the electroporation method (BIO-RAD, Gene Pulser II, voltage 300 V, charge 975 μF, 400 μL).
After transformation, 2.5 mL of RPMI 1640 containing 10% FBS (MOREGATE) (10% FBS RPMI 1640) was added, and this mixture was dispensed to a 96-well white plate in a ratio of 50 μL/well. After cultivation under conditions of 37° C., 5% CO2 and saturated humidity for 10 hours, a liquid mixture of Phorbol 12-Myristate 13-Acetate (PMA, SIGMA), Ionomycin (SIGMA) and Anti-CD28 antibody (Pharmingen) in 10% FBS RPMI 1640 was added at 50 μL/well (the final concentrations were 50 ng/mL, 1 μg/mL and 75 ng/mL, respectively) to stimulate the Jurkat cells. After cultivation under conditions of 37° C., 5% CO2 and saturated humidity for 12 hours, luciferase activity in the cells was measured according to the manual of the Bright-Glo Luciferase Assay System (Promega) using a multi-label counter (1420 MULTILABEL COUNTER ARVO SX, WALLAC).
1×10^7 Jurkat cells (ATCC, TIB-152) were transformed with 10 μg of a plasmid for the expression of various HDACs or HDAC variants by the electroporation method (BIO-RAD, Gene Pulser II, voltage 300 V, charge 975 μF, 400 μL). […] After cultivation under conditions of 37° C., 5% CO2 and saturated humidity for 12 hours, luciferase activity in cells were measured according to the manual of the Bright-Glo Luciferase Assay System (Promega), and IL-2 transcriptional activity was measured using a multi-label counter (1420 MULTILABEL COUNTER ARVO SX, WALLAC).
A mixture of four kinds of HDAC4-targeted siRNA, i.e., siGENE HDAC4 SMARTpool (manufactured by Dharmacon Inc., marketed by B-Bridge international Inc., code number M-003497-00-05), or Non-specific Control Duplex IX (47% GC content) (manufactured by Dharmacon Inc., marketed by B-Bride international Inc., code number D-001206-09-20), and pGL3 IL2 Pro43 were transfected to Jurkat cells by the electroporation method using the same conditions as those mentioned above, and IL-2 transcriptional activity was measured. Likewise, siGENE HDAC4 SMARTpool or Non-specific Control Duplex IX, and pGL3-HSI-IE Pro were transfected to HEL cells, and GATA-1 transcriptional activity was measured. […]

[2] = test system: Jurkat cells; assay: Cell proliferation, Cell Counting Kit-8; type: cell-based, human; conditions: 10 μg expression plasmid; Jurkat cells versus HEL cells and 293 cells
Description: 10 μg of a plasmid for the expression of wild-type HDAC4 and the HDAC4 dominant negative variant (H863L) prepared in Example 6 was transfected to Jurkat cells, HEL cells and 293 cells.
1×10^7 Jurkat cells (ATCC, TIB-152) were transformed by the electroporation method (BIO-RAD, Gene Pulser II, voltage 300 V, charge 975 μF, 400 μL). After transformation, 2.5 mL of RPMI 1640 containing 10% FBS (MOREGATE) (10% FBS RPMI 1640) was added, and this mixture was dispensed to a 96-well white plate in a ratio of 50 μL/well. After cultivation under conditions of 37° C., 5% CO2 and saturated humidity for 5 hours, a liquid mixture of Phorbol 12-Myristate 13-Acetate (PMA, SIGMA), Ionomycin (SIGMA) and Anti-CD28 antibody (Pharmingen) in 10% FBS RPMI 1640 was added at 50 μL/well (the final concentrations were 50 ng/mL, 1 μg/mL and 75 ng/mL, respectively) to stimulate the Jurkat cells. After cultivation under conditions of 37° C., 5% CO2 and saturated humidity for 4 hours, the number of cell was confirmed using the Cell Counting Kit-8 (DOJIN) 8.75×10^6 HEL cells (accession number JCRBOO62, JCRB) were transformed by the electroporation method (BIO-RAD, Gene Pulser II, voltage 1750 V, charge 10 μF, 365 μL). After transformation, 2 mL of 10% FBS RPMI 1640 was added, and this mixture was dispensed to a 96-well white plate in a ratio of 50 μL/well. […]

[3] = test system: N-CoR and HDAC3; assay: Complex forming ability, anti-Flag purification and Western blotting; type: binding, human; conditions: expressed in PEAK Rapid cells; compared to wild-type HDAC4

B1: HDAC4 dominant negative variant (H863L): HDAC4 variant with H863L mutation, amino acid sequence SEQ ID NO:6, expressed from plasmid (protein, listed as Homo sapiens)
chain: MSSQSHPDGLSGRDQPVELLNPARVNHMPSTVDVATALPLQVAPSAVPMDLRLDHQFSLPVAEPALREQQLQQELLALKQKQQIQRQILIAEFQRQHEQLSRQHEAQLHEHIKQQQEMLAMKHQQELLEHQRKLERHRQEQELEKQHREQKLQQLKNKEKGKESAVASTEVKMKLQEFVLNKKKALAHRNLNHCISSDPRYWYGKTQHSSLDQSSPPQSGVSTSYNHPVLGMYDAKDDFPLRKTASEPNLKLRSRLKQKVAERRSSPLLRRKDGPVVTALKKRPLDVTDSACSSAPGSGPSSPNNSSGSVSAENGIAPAVPSIPAETSLAHRLVAREGSAAPLPLYTSPSLPNITLGLPATGPSAGTAGQQDTERLTLPALQQRLSLFPGTHLTPYLSTSPLERDGGAAHSPLLQHMVLLEQPPAQAPLVTGLGALPLHAQSLVGADRVSPSIHKLRQHRPLGRTQSAPLPQNAQALQHLVIQQQHQQFLEKHKQQFQQQQLQMNKIIPKPSEPARQPESHPEETEEELREHQALLDEPYLDRLPGQKEAHAQAGVQVKQEPIESDEEEAEPPREVEPGQRQPSEQELLFRQQALLLEQQRIHQLRNYQASMEAAGIPVSFGGHRPLSRAQSSPASATFPVSVQEPPTKPRFTTGLVYDTLMLKHQCTCGSSSSHPEHAGRIQSIWSRLQETGLRGKCECIRGRKATLEELQTVHSEAHTLLYGTNPLNRQKLDSKKLLGSLASVFVRLPCGGVGVDSDTIWNEVHSAGAARLAVGCVVELVFKVATGELKNGFAVVRPPGHHAEESTPMGFCYFNSVAVAAKLLQQRLSVSKILIVDWDVHHGNGTQQAFYSDPSVLYMSLLRYDDGNFFPGSGAPDEVGTGPGVGFNVNMAFTGGLDPPMGDAEYLAAFRTVVMPIASEFAPDVVLVSSGFDAVEGHPTPLGGYNLSARCFGYLTKQLMGLAGGRIVLALEGGHDLTAICDASEACVSALLGNELDPLPEKVLQQRPNANAVRSMEKVMEIHSKYWRCLQRTTSTAGRSLIEAQTCENEEAETVTAMASLSVGVKPAEKRPDEEPMEEEPPL
modifications: Dominant negative mutant (H863L) of human histone deacetylase-4 (HDAC4) gene
B1 was tested, and the “IL-2 transcriptional activity (luciferase)” value ([1]; Jurkat cells stimulated with PMA, Ionomycin, Anti-CD28 antibody, expression plasmid 1, 3 and 10 μg) was “IL-2 transcription suppression depending on the expression level”, the “IL-2 transcriptional activity (luciferase)” value ([1]; Jurkat cells, 10 μg expression plasmid, compared with HDAC1 and HDAC3 variants) was “IL-2 transcription suppression was observed” and the “cell proliferation (number of cells)” value [2] was “cell proliferation inhibition specific for Jurkat cells”. For the same molecule, the “HDAC3 and N-CoR in the crudely purified fraction (complex forming ability)” value [3] was “contained almost no HDAC3 or N-COR”.
